Experimental data from US20250066508A1 (SHENYANG SUNSHINE PHARMACEUTICAL, published 2025).
Values belong to the binder of their own block, whether it stands above or below them.

Key:
[1] = target: T1, MASP2-CCP1/2-SP-RKSA (human, UniProt O00187 298-686); assay: SPR, Biacore 8K, antibody captured on Protein A/G chip, antigen as analyte
From the text: (§1) Here, the affinity between the above antibodies and MASP2-CCP1/2-SP-RKSA or MASP2-CCP1/2-SP-RQ was detected by Biacore 8K (GE healthcare). On Biacore 8K, a chip conjugated with Protein A/G was used to capture various antibodies, and then the above two recombinations were used as analytes (Analyte) to flow through the chip to obtain the binding-dissociation curve, and regeneration buffer was used to regenerate the chip and proceed to the next cycle; Biacore 8K Evaluation Software was used to analyze the data.

[2] = target: T2, MASP2-CCP1/2-SP-RQ (human, UniProt O00187 298-686); assay: as above
T2 sequence (O00187 other isoform, or with tags, fused parts or gaps limits assumed): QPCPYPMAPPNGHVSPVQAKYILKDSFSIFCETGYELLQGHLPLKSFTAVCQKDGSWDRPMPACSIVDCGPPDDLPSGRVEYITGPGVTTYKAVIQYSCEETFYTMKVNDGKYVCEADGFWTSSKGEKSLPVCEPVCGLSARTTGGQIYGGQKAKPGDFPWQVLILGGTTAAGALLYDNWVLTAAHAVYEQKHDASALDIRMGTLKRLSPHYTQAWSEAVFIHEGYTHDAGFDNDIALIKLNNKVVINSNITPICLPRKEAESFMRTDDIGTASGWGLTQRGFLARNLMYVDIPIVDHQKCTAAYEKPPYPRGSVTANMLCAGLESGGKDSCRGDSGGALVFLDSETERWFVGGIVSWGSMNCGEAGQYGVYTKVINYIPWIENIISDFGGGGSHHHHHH
From the text: as §1

[3] = target: Human MASP-2 (human, UniProt O00187 16-686); assay: cell-based or functional assay
Human MASP-2, sequence (O00187 16-686 limits assumed): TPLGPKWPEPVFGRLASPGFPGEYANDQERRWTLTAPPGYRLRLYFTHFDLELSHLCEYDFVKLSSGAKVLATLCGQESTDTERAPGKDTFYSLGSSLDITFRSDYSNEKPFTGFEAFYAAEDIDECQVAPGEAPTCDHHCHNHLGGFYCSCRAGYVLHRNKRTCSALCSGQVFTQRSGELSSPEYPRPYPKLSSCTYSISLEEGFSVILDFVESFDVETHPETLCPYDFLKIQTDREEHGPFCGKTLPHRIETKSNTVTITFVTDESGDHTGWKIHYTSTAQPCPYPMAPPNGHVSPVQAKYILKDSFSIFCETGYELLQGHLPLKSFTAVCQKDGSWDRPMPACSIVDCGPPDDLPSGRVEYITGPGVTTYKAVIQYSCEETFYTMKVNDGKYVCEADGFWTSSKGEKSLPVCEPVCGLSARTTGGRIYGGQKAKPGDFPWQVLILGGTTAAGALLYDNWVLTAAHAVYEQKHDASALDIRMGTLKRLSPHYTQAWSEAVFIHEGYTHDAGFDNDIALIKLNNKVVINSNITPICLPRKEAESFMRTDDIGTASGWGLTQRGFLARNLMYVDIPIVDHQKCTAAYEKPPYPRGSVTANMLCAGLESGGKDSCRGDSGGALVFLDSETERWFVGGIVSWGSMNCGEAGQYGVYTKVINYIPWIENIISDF

[4] = target: T3, Rhesus MASP2-CCP1/2-SP-RQSA (rhesus macaque, UniProt O00187 298-686 (human entry), limits assumed); assay: ELISA, antigen coated 20 ng/well
T3 construct: also called rhesus macaque MASP-2
T3 sequence (O00187 other isoform, or with tags, fused parts or gaps limits assumed): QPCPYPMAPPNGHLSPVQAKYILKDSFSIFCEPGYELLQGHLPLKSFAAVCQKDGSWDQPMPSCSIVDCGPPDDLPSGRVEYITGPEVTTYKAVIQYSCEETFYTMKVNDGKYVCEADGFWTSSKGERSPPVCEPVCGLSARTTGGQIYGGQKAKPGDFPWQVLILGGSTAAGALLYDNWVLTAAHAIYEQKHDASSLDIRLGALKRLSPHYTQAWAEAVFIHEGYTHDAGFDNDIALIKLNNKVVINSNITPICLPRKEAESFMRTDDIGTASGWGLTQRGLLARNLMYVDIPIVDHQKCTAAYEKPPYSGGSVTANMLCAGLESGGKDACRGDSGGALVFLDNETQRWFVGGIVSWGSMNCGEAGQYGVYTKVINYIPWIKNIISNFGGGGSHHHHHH
Method: (§2) The enzyme-linked immunosorbent assay (ELISA) method used in the following examples is described as follows: the microplate was coated with the corresponding recombinant protein, and PBST containing 1% bovine serum albumin (PBST is phosphate buffer containing 0.05% Tween-20) was used to block the microplate. The antibody to be tested was serially diluted, then transferred to the above-mentioned microplate coated with recombinant protein, followed by incubation at room temperature for half an hour. After washing the plate, appropriately diluted HRP (Horseradish Peroxidase)-labeled goat anti-human antibody (Fc specific, purchased from Sigma) was added, followed by incubation at room temperature for half an hour. After washing the plate, 100 μl of chromogenic solution with TMB (3,3′,5,5′-Tetramethylbenzidine) was added as substrate to each well, followed by incubation at room temperature for 1 to 5 minutes. 50 μl stop solution (2M H₂SO₄) was added to stop the reaction. OD450 was read by a plate reader (SpectraMax 190). GraphPad Prism7 was used for graphing and data analyzing, and EC₅₀/IC₅₀ was calculated.

[5] = target: Rat MASP2-CCP1/2-SP-RQSA (rat, UniProt Q9JJS8 298-685); assay: ELISA, antigen coated 20 ng/well
Rat MASP2-CCP1/2-SP-RQSA, sequence (Q9JJS8 other isoform, or with tags, fused parts or gaps limits assumed): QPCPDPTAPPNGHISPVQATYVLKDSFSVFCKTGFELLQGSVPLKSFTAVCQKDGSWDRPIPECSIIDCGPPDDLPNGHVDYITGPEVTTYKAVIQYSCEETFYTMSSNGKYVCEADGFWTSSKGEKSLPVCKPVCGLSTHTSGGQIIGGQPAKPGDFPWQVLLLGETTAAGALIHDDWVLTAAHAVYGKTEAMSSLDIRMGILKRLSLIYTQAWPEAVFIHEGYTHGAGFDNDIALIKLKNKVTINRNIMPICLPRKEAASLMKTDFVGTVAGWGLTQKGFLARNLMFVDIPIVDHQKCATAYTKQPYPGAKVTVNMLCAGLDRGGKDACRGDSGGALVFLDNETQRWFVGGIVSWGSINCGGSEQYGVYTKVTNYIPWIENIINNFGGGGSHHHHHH
Method: as §2

[6] = target: T4, MASP2-CCP1/2 (human, UniProt O00187 298-443); assay: ELISA, antigen coated 20 ng/well
T4 construct: also called CCP1/2 domain of MASP-2
T4 sequence (O00187 other isoform, or with tags, fused parts or gaps limits assumed): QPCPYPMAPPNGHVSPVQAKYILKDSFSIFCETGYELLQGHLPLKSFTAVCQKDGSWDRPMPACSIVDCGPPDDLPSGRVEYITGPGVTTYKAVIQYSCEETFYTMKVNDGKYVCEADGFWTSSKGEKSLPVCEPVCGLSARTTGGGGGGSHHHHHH
Method: as §2

[7] = target: Mouse MASP2-CCP1/2-SP-RQSA (mouse, UniProt Q91WP0 298-685); assay: ELISA, antigen coated 20 ng/well
Mouse MASP2-CCP1/2-SP-RQSA, sequence (Q91WP0 other isoform, or with tags, fused parts or gaps limits assumed): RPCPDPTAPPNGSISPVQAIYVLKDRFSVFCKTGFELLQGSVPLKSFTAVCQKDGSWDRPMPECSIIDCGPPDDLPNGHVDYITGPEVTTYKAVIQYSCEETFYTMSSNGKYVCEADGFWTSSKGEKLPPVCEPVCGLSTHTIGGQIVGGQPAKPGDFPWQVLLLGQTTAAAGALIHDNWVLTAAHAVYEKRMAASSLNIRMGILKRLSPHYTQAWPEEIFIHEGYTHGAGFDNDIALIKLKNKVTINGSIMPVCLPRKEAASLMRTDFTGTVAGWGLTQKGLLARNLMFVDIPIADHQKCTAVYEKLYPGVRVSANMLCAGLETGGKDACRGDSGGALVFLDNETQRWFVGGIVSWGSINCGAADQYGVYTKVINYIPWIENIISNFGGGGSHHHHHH
Method: as §2

[8] = target: T5, MASP1-CCP1/2-SP-RQSA (human, UniProt P48740 299-699); assay: ELISA, plate coated with MASP1-CCP1/2-SP-RQSA (20 ng/well), HRP goat anti-human Fc, OD450
T5 construct: also called human MASP-1; human MASP1-CCP1/2-SP-RQSA
T5 chain: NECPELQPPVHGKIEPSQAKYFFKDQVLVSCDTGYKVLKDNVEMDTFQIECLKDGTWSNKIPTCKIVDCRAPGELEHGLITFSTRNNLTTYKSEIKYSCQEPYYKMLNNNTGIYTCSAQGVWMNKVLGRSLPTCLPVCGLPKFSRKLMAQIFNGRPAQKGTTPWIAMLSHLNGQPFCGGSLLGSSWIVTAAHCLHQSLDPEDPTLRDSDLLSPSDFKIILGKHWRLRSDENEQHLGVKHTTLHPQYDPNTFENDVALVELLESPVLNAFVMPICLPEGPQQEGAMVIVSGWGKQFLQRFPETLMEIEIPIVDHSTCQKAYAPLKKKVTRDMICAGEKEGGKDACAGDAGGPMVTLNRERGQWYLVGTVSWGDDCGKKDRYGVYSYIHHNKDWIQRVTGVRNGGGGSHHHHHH
Method: as §2

[9] = target: T1, MASP2-CCP1/2-SP-RKSA; assay: ELISA, antigen coated 20 ng/well
Method: as §2
(§3) The smaller the EC₅₀ and the larger the Top, the stronger the binding effect is.

[10] = target: T2, MASP2-CCP1/2-SP-RQ; assay: ELISA, antigen coated 20 ng/well
Method: as §2, §3

[11] = target: T6, MASP2-SP-RQSA (human, UniProt O00187 445-686, limits assumed); assay: ELISA, plate coated with MASP2-SP-RQSA (20 ng/well), HRP goat anti-human Fc, OD450
T6 construct: also called SP domain of MASP-2
T6 sequence (O00187 other isoform, or with tags, fused parts or gaps limits assumed): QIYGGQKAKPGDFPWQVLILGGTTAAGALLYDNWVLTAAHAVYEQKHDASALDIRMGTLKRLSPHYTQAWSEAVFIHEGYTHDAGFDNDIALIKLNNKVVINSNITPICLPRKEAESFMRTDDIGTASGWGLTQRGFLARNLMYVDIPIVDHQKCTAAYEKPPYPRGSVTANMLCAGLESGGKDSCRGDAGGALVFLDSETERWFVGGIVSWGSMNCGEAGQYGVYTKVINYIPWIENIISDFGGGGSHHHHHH
Method: as §2

[12] = target: T7, MASP3-CCP1/2-SP-RQSA (human); assay: ELISA, plate coated with MASP3-CCP1/2-SP-RQSA (20 ng/well), HRP goat anti-human Fc, OD450
T7 construct: also called human MASP-3; human MASP3-CCP1/2-SP-RQSA
T7 chain: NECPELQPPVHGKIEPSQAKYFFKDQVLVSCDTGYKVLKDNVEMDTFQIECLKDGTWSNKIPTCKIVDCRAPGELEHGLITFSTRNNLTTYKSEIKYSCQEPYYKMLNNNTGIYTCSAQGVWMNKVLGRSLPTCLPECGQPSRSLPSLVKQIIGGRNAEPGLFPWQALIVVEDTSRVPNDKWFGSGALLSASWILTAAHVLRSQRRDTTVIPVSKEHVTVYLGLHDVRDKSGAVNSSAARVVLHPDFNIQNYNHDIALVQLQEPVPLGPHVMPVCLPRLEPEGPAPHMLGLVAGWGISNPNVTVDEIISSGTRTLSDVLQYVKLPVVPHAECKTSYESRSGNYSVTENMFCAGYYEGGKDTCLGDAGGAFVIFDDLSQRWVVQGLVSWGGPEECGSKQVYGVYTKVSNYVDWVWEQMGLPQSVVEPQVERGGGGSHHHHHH
Method: as §2

T1 sequence (O00187 other isoform, or with tags, fused parts or gaps limits assumed): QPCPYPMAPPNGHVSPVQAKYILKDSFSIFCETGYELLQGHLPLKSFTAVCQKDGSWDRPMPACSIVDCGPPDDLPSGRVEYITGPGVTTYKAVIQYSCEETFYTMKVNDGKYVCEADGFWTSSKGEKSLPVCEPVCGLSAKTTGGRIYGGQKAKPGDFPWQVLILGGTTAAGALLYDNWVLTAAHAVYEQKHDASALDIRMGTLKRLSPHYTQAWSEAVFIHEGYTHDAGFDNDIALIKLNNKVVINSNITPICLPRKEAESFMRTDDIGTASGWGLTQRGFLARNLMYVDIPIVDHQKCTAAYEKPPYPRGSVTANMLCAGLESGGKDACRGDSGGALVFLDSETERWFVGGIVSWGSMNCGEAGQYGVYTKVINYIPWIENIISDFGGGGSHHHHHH

Kd [1]: 38600 pM
koff [1]: 0.00382 s⁻¹
kon [1]: 99200 M⁻¹ s⁻¹
Kd [2]: 4820 pM
koff [2]: 0.00361 s⁻¹
kon [2]: 750000 M⁻¹ s⁻¹
IC50 of C3 deposition on mannan-coated microplates (40 µg/ml mannan, 1% human plasma) [3]: 88.8 pM
IC50 of C3 deposition on mannan-coated microplates (100 µg/ml mannan, 1% human plasma) [3]: 99.6 pM
EC50 [4]: 136 pM
EC50 [5]: 231 pM
EC50 [6]: 146 pM
EC50 [7]: 190 pM
EC50 [9]: 106 pM
EC50 [10]: 136 pM
B1: 169-IgG4 (antibody, V domains shown)
VH: QVQLQESGPGLVKPSETLSLTCTVSGGSISSSSYYWGWIRQPPGKGLEWIGSIYYSGSTYYNPSLKSRVTISVDTSKNQFSLKLSSVTAADTAVYYCARDRRGRFDPWGQGTMVTVSS
VL: SYELMQPPSMSVSPGQTASITCSGDKLGDIYAYWYQQKPGQSPVLVIYQDNKRPSGIPERFSGSNSGNTATLTISGTQAMDEADYYCQAWESSTGVFGGGTKLTVLG
notes: expressed in HEK293F; also called preferred antibody
binding result [8]: no binding (tested: 100 nM (Log(Ab nM) = 2))
binding result [11]: no binding (tested: 100 nM (Log(Ab nM) = 2))
binding result [12]: no binding (tested: 100 nM (Log(Ab nM) = 2))

EC50 [5]: 455 pM
EC50 [7]: 169 pM
B2: Narsoplimab (antibody, human IgG4 S228P, lambda, V domains shown)
VH: QVTLKESGPVLVKPTETLTLTCTVSGFSLSRGKMGVSWIRQPPGKALEWLAHIFSSDEKSYRTSLKSRLTISKDTSKNQVVLTMTNMDPVDTATYYCARIRRGGIDYWGQGTLVTVSS
VL: QPVLTQPPSLSVSPGQTASITCSGEKLGDKYAYWYQQKPGQSPVLVMYQDKQRPSGIPERFSGSNSGNTATLTISGTQAMDEADYYCQAWDSSTAVFGGGTKLTVLG
notes: also called positive control antibody; Control Narsoplimab
binding result [12]: no binding (tested: 100 nM (Log(Ab nM) = 2))
